Data on three molecules can be found in article PMC4481117, “The opioid peptide dynorphin A induces leukocyte responses via integrin Mac-1 (αMβ2, CD11b/CD18)” (Molecular Pain, 2015).

Experiment [1] addresses T1, 125I-labeled αMI-domain, active form (αM Glu123-Lys315) (UniProt P11215 139-331, 125I label).
T1 construct: also called recombinant αMI-domain; α7 helix-truncated αMI-domain
Put plainly: peptide or protein array; 9-mer peptides on cellulose membrane (SPOT synthesis), blocked with 1 % BSA, incubated with 10 μg/ml 125I-labeled αMI-domain in TBS with 1 mM MgCl2; autoradiography and densitometry. The settings on record: both partners purified.

Experiment [2] has as its target integrin Mac-1 on IC-21 murine macrophages (mouse (endogenous in IC-21), UniProt P05555 17-1153; P11835 24-771). Put plainly: cell-based or functional assay.

cellulose = cellulose membrane support; βAla = NCCC(=O)O

T1 sequence (P11215 139-331): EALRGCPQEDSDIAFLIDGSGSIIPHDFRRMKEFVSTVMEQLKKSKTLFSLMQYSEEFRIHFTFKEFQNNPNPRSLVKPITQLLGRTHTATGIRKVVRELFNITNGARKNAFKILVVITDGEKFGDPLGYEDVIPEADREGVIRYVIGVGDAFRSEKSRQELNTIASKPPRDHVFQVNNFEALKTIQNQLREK
Chain of integrin Mac-1 on IC-21 murine macrophages (P05555 17-1153, chain 1 of 2): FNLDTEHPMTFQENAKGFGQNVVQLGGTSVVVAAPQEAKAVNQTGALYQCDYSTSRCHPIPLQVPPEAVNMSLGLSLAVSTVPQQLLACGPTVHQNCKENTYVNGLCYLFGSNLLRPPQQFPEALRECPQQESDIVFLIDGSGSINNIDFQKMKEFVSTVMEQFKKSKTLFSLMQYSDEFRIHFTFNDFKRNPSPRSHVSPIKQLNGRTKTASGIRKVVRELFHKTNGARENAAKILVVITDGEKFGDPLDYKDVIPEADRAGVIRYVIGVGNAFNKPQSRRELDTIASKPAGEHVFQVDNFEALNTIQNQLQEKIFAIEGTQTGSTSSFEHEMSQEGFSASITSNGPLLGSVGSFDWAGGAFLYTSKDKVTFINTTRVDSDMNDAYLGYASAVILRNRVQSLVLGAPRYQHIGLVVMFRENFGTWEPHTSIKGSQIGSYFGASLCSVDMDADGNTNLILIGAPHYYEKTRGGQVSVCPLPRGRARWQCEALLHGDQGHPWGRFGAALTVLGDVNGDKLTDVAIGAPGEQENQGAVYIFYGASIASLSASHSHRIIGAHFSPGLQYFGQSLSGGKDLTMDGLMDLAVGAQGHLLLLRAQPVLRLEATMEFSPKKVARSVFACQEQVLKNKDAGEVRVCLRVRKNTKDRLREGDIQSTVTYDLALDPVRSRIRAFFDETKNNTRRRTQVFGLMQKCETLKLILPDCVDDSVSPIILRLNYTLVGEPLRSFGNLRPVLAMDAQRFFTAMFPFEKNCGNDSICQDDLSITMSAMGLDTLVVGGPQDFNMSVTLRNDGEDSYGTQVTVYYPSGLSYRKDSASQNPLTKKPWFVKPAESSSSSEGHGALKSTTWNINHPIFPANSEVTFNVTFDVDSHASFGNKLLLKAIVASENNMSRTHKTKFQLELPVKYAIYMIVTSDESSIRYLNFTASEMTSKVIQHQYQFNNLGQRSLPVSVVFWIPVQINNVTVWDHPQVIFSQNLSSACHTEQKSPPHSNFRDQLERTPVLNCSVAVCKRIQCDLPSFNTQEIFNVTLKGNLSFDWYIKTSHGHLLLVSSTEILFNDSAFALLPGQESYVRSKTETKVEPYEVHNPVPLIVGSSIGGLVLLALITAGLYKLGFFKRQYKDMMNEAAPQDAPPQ
Chain of integrin Mac-1 on IC-21 murine macrophages (P11835 24-771, chain 2 of 2): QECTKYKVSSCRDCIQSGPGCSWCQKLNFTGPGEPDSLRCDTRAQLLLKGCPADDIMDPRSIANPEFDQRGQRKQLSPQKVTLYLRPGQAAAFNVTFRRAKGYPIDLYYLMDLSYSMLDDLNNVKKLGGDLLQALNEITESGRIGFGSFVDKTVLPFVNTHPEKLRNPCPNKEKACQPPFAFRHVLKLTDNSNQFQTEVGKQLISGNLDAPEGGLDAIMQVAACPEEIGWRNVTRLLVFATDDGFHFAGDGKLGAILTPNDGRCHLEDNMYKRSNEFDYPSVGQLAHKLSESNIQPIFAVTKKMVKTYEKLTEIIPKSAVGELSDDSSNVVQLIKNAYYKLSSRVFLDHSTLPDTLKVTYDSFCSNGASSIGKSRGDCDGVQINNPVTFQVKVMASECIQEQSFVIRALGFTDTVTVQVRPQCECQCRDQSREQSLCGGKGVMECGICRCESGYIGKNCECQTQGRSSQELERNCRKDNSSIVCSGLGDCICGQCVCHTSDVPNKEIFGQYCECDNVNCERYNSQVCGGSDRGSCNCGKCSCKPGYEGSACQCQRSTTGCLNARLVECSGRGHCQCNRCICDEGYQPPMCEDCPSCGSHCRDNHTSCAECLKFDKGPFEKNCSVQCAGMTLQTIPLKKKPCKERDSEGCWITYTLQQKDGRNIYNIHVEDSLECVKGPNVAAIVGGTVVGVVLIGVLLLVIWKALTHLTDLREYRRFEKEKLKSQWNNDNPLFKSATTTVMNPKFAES

B1: dynorphin AB library peptide, spot 1 (YGGFLRRIR) (peptide)
peptide: Ac-YGGFLRRIR-{βAla-βAla-cellulose}
notes: 9-mer of dynorphin AB; also called peptide #1; source: synthetic peptide, parallel spot synthesis on cellulose membrane
B1: in experiment [1], the binding result is “binds”.

B2: dynorphin AB library peptide, spot 2 (FLRRIRPKL) (peptide)
peptide: Ac-FLRRIRPKL-{βAla-βAla-cellulose}
notes: 9-mer of dynorphin AB; source: synthetic peptide, parallel spot synthesis on cellulose membrane
For B2, the binding result in experiment [1] is “binds”.

YGGFLRRIRPKLKWDNQ [dynorphin A]: the “phagocytosis of Dyn A-treated fluorescent latex beads by IC-21 murine macrophages, against control beads” value in experiment [2] is roughly 10 fold.
